This is an account of results in US20220306744A1 (CRESCENDO BIOLOGICS, published 2022).

B1: 1.21a (VHH)
VHH: EVQLVESGGGLVQPGRSLRLSCAASGFTFDDYAMHWVRQAPGKDLEWVSGISWNGGSMGYAASVKGRFTISRDNAKNSLYLQMNSLRAEDTALYYCVREKGPGLTGSTADYYGLDVWGQGTMVTVSS
B2: 1.31a (VHH)
VHH: EVQLVESGGGLVQPGRSLRLSCAASGFTFDDYALHWVRQAPGKDLEWVSGISWNGGSMGYAASVKGRFTISRDNAKNSLYLQMNSLRAEDTALYYCVREKGPGLTGSTADYYGLDAWGQGTMVTVSS
B3: 1.43a (VHH)
VHH: EVQLVESGGGLVQPGRSLRLSCAASGFTFDDYAFHWVRQAPGKDLEWVSGISWNAGSYGYADSVKGRFTISRDNAKNSLYLQMNSLRAEDTALYYCVREKGPGLTGSTADYYGLDAWGQGTMVTVSS
B4: 1.23a (VHH)
VHH: EVQLVESGGGLVQPGRSLRLSCAASGFTFDDYAMHWVRQAPGKDLEWVSGISWNSGSMGYAASVKGRFTISRDNAKNSLYLQMNSLRAEDTALYYCVREKGPGLTGSTADYYGLDVWGQGTMVTVSS
B5: 1.39a (VHH)
VHH: EVQLVESGGGLVQPGRSLRLSCAASGFTFDDYALHWVRQAPGKDLEWVSGISWNGGSYGYADSVKGRFTISRDNAKNSLYLQMNSLRAEDTALYYCVREKGPGLTGSTADYYGLDAWGQGTMVTVSS
notes: also called Humabody 1.39a
B6: 1.40a (VHH)
VHH: EVQLVESGGGLVQPGRSLRLSCAASGFTFDDYALHWVRQAPGKDLEWVSGISWNGGSQGYADSVKGRFTISRDNAKNSLYLQMNSLRAEDTALYYCVREKGPGLTGSTADYYGLDAWGQGTMVTVSS
B7: 1.30a (VHH)
VHH: EVQLVESGGGLVQPGRSLRLSCAASGFTFDDYAGHWVRQAPGKDLEWVSGISWNGGSMGYAASVKGRFTISRDNAKNSLYLQMNSLRAEDTALYYCVREKGPGLTGSTADYYGLDAWGQGTMVTVSS
B8: 1.37a (VHH)
VHH: EVQLVESGGGLVQPGRSLRLSCAASGFTFDDYAFHWVRQAPGKDLEWVSGISWNGGSMGYADSVKGRFTISRDNAKNSLYLQMNSLRAEDTALYYCVREKGPGLTGSTADYYGLDAWGQGTMVTVSS
B9: 1.33a (VHH)
VHH: EVQLVESGGGLVQPGRSLRLSCAASGFTFDDYAMHWVRQAPGKDLEWVSGISWNGGSYGYADSVKGRFTISRDNAKNSLYLQMNSLRAEDTALYYCVREKGPGLTGSTADYYGLDAWGQGTMVTVSS
B10: 1.25a (VHH)
VHH: EVQLVESGGGLVQPGRSLRLSCAASGFTFDDYAMHWVRQAPGKDLEWVSGISWNGGSQGYAASVKGRFTISRDNAKNSLYLQMNSLRAEDTALYYCVREKGPGLTGSTADYYGLDAWGQGTMVTVSS
B11: 1.32a (VHH)
VHH: EVQLVESGGGLVQPGRSLRLSCAASGFTFDDYAMHWVRQAPGKDLEWVSGISWNSGSMGYADSVKGRFTISRDNAKNSLYLQMNSLRAEDTALYYCVREKGPGLTGSTADYYGLDAWGQGTMVTVSS
B12: 1.22a (VHH)
VHH: EVQLVESGGGLVQPGRSLRLSCAASGFTFDDYAMHWVRQAPGKDLEWVSGISWNGGSMGYAASVKGRFTISRDNAKNSLYLQMNSLRAEDTALYYCVREKGPGLTGSTADYYGLDAWGQGTMVTVSS
B13: 1.35a (VHH)
VHH: EVQLVESGGGLVQPGRSLRLSCAASGFTFDDYAMHWVRQAPGKDLEWVSGISWNGGSKGYADSVKGRFTISRDNAKNSLYLQMNSLRAEDTALYYCVREKGPGLTGSTADYYGLDAWGQGTMVTVSS
B14: 1.34a (VHH)
VHH: EVQLVESGGGLVQPGRSLRLSCAASGFTFDDYAMHWVRQAPGKDLEWVSGISWNGGSQGYADSVKGRFTISRDNAKNSLYLQMNSLRAEDTALYYCVREKGPGLTGSTADYYGLDAWGQGTMVTVSS
B15: 1.29a (VHH)
VHH: EVQLVESGGGLVQPGRSLRLSCAASGFTFDDYAMHWVRQAPGKDLEWVSGISWNSGSMGYADSVKGRFTISRDNAKNSLYLQMNSLRAEDTALYYCVREKGPGLTGSTADYYGLDVWGQGTMVTVSS
B16: 1.27a (VHH)
VHH: EVQLVESGGGLVQPGRSLRLSCAASGFTFDDYAMHWVRQAPGKDLEWVSGISWNGGSRGYAASVKGRFTISRDNAKNSLYLQMNSLRAEDTALYYCVREKGPGLTGSTADYYGLDAWGQGTMVTVSS
B17: 1.42a (VHH)
VHH: EVQLVESGGGLVQPGRSLRLSCAASGFTFDDYAFHWVRQAPGKDLEWVSGISWNGGSQGYADSVKGRFTISRDNAKNSLYLQMNSLRAEDTALYYCVREKGPGLTGSTADYYGLDAWGQGTMVTVSS
B18: 1.36a (VHH)
VHH: EVQLVESGGGLVQPGRSLRLSCAASGFTFDDYAMHWVRQAPGKDLEWVSGISWNAGSMGYADSVKGRFTISRDNAKNSLYLQMNSLRAEDTALYYCVREKGPGLTGSTADYYGLDAWGQGTMVTVSS
B19: 1.41a (VHH)
VHH: EVQLVESGGGLVQPGRSLRLSCAASGFTFDDYAFHWVRQAPGKDLEWVSGISWNGGSYGYADSVKGRFTISRDNAKNSLYLQMNSLRAEDTALYYCVREKGPGLTGSTADYYGLDAWGQGTMVTVSS
B20: 1.28a (VHH)
VHH: EVQLVESGGGLVQPGRSLRLSCAASGFTFDDYAMHWVRQAPGKDLEWVSGISWNAGSMGYAASVKGRFTISRDNAKNSLYLQMNSLRAEDTALYYCVREKGPGLTGSTADYYGLDAWGQGTMVTVSS
B21: 1.24a (VHH)
VHH: EVQLVESGGGLVQPGRSLRLSCAASGFTFDDYAMHWVRQAPGKDLEWVSGISWNSGSMGYAASVKGRFTISRDNAKNSLYLQMNSLRAEDTALYYCVREKGPGLTGSTADYYGLDAWGQGTMVTVSS
B22: 1.38a (VHH)
VHH: EVQLVESGGGLVQPGRSLRLSCAASGFTFDDYALHWVRQAPGKDLEWVSGISWNGGSMGYADSVKGRFTISRDNAKNSLYLQMNSLRAEDTALYYCVREKGPGLTGSTADYYGLDAWGQGTMVTVSS

The target of this experiment is T1, human PD-1 expressed on cells (CHO TREX human PD1 cell line, full-length human PD-1 sequence) (human, UniProt Q15116 21-288).
T1 construct: Also used for human PD-1 on Jurkat reporter cells, on PathHunter cells and on PHA-stimulated human CD4+ T cells; also called CHO human PD1 cells; CHO human PD-1 cells
T1 sequence (Q15116 21-288): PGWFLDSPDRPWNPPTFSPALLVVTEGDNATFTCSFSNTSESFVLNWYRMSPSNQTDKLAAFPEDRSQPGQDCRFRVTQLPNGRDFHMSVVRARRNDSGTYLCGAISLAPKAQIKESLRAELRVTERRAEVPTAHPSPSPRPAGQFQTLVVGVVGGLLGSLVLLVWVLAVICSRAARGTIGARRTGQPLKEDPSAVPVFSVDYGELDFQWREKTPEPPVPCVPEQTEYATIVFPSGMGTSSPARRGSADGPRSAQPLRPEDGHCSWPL
Description: worded summary of the screens.
For the molecule B1, the binding result is on record as “binds”.
The entry for B2 is “binds”; for B3 it is “binds”; for B4 it is “binds”.
As for B5, the binding result is “binds”.
As for B6, the binding result was “binds”.
The entry for B7 is “binds”; for B8 it is “binds”; for B9 it is “binds”.
With B10 the entry was “binds”; with B11, “binds”.
The entry for B12 is “binds”; for B13 it is “binds”.
B14: the binding result was “binds”.
With B15 the entry was “binds”; with B16, “binds”; with B17, “binds”.
For B18, the binding result was “binds”.
For B19, the binding result is reported as “binds”.
With B20 the entry was “binds”.
With B21 the entry was “binds”.
In the case of B22, the binding result is “binds”.
